Here are results for seven molecules from PMC4528719, “Functional role of dimerization and CP190 interacting domains of CTCF protein in Drosophila melanogaster” (BMC Biology, 2015).

Series [1] deals with T1, thioredoxin-tagged CP190-BTB (Drosophila).
T1 sequence (Q24478 whole entry, looked up): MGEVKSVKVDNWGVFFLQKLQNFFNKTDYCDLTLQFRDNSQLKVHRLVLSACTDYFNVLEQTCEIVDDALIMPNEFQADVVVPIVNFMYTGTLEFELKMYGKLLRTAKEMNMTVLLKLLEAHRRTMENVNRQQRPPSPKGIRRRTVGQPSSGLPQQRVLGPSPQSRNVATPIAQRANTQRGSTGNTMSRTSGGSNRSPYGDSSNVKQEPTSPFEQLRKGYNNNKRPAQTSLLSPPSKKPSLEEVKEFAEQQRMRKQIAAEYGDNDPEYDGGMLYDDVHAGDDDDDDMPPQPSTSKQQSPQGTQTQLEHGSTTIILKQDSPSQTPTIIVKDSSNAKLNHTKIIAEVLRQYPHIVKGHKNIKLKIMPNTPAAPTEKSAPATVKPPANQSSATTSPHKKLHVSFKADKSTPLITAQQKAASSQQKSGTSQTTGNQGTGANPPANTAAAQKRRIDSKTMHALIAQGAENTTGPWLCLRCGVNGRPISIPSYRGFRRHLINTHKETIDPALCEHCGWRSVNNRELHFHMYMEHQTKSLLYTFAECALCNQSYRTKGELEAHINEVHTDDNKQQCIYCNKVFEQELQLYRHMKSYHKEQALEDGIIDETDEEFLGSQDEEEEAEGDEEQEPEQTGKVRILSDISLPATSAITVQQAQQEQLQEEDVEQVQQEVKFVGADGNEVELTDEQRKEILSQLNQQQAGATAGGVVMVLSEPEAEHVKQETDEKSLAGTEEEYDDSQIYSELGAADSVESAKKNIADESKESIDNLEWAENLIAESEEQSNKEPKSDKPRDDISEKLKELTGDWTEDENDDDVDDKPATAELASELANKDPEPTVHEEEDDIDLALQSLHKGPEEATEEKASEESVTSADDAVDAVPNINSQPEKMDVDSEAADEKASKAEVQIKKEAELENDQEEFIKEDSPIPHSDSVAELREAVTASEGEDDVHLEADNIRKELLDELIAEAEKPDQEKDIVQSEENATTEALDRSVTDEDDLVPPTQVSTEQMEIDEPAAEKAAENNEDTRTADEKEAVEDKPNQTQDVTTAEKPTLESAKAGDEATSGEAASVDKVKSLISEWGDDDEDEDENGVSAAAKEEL
As to the kind of experiment: cross-linking; CP190-BTB constant at 20 μM, alone or mixed with CTCF-CTD at stated molar ratios, 2 h (legend of Fig. 4b: 1 h) at room temperature, then glutaraldehyde; buffer B; SDS-PAGE, Coomassie or silver staining.

Series [2] deals with the molecule itself. The series is described as follows: cross-linking; one protein alone at 5 μM, increasing glutaraldehyde, 10 min at room temperature, 20 mM HEPES-KOH pH 7.7, 150 mM NaCl, 20 mM imidazole, 1 mM β-mercaptoethanol; SDS-PAGE, silver staining.
Series [3] concerns the target T2, dCTCF–CTD 612–818 protein (Drosophila melanogaster, UniProt Q9VS55 612-818).
T2 construct: also called CTD protein; source: E. coli BL21, purified (Ni-NTA)
T2 sequence (looked up): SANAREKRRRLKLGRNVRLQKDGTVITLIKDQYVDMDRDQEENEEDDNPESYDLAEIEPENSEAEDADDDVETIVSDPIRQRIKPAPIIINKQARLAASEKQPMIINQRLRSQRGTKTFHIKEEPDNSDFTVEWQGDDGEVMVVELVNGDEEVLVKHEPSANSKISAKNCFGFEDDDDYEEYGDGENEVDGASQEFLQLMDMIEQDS
As to the kind of experiment: pull-down; GST–CP190 fragments on glutathione agarose, recombinant dCTCF-CTD in solution; 2 h room temperature, buffer C; washes with 500 mM NaCl (Fig. 3f). Conditions: both partners purified.

“thioredoxin-tagged CP190-BTB (domain or fragment)”: the stoichiometry N (commonly a count of units in the complex or per binding partner) in series [1] was 2.

B1: dCTCF NTD 125–180 (domain or fragment, Drosophila melanogaster, UniProt Q9VS55 125-180, looked up)
chain: STATNKSINLRPAKSTPKATTSKPPPEPKAISVRPARAAAAKAKQSAMPPPPALVV
notes: dCTCF, Drosophila melanogaster, residues 125-180; source: E. coli BL21, purified (Ni-NTA)
Regarding B1, the binding result in series [2] was “binds”.

B2: thioredoxin NTD 1–205 fusion protein of dCTCF (domain or fragment, Drosophila melanogaster, UniProt Q9VS55 1-205, looked up)
chain: MPRRTKKDEDPEDLQTFLNNFHKEIEGNSDEKVVNTILEAISAEAIDLDENGAEAGGSKPMEEAEADLDHAEEAEEEEEDDEDKYFIDDEGNCYIKTTPKKQKELQKKLKQAAAKPGKATRSVVSTATNKSINLRPAKSTPKATTSKPPPEPKAISVRPARAAAAKAKQSAMPPPPALVVKVPAPRGRPRKNPVIPKPEPMDLER
notes: pET32a(+) vector; purified on Ni-NTA, so a His tag is likely present; source: E. coli BL21, purified (Ni-NTA)
Regarding B2, the binding result in series [2] is “binds”.

B3: dCTCF NTD 70–163 (domain or fragment, Drosophila melanogaster, UniProt Q9VS55 70-163, looked up)
chain: HAEEAEEEEEDDEDKYFIDDEGNCYIKTTPKKQKELQKKLKQAAAKPGKATRSVVSTATNKSINLRPAKSTPKATTSKPPPEPKAISVRPARAA
notes: dCTCF, Drosophila melanogaster, residues 70-163; source: E. coli BL21, purified (Ni-NTA)
As for B3, the binding result in series [2] is “binds”.

B4: GST–CP190 BTB domain (1–126) (domain or fragment, Drosophila, UniProt Q24478 1-126, looked up)
chain: MGEVKSVKVDNWGVFFLQKLQNFFNKTDYCDLTLQFRDNSQLKVHRLVLSACTDYFNVLEQTCEIVDDALIMPNEFQADVVVPIVNFMYTGTLEFELKMYGKLLRTAKEMNMTVLLKLLEAHRRTM
For the molecule B4, the binding result in series [3] is recorded as “binds”.

B5: thioredoxin-tagged dCTCF NTD 1–163 (domain or fragment, Drosophila melanogaster, UniProt Q9VS55 1-163, looked up)
chain: MPRRTKKDEDPEDLQTFLNNFHKEIEGNSDEKVVNTILEAISAEAIDLDENGAEAGGSKPMEEAEADLDHAEEAEEEEEDDEDKYFIDDEGNCYIKTTPKKQKELQKKLKQAAAKPGKATRSVVSTATNKSINLRPAKSTPKATTSKPPPEPKAISVRPARAA
notes: dCTCF, Drosophila melanogaster, residues 1-163; pET32a(+) vector; purified on Ni-NTA, so a His tag is likely present; source: E. coli BL21, purified (Ni-NTA)
Take B5: the “stoichiometry N” value in series [2] is approximately 4.

B6: dCTCF–CTD 612–818 protein (domain or fragment)
chain: SANAREKRRRLKLGRNVRLQKDGTVITLIKDQYVDMDRDQEENEEDDNPESYDLAEIEPENSEAEDADDDVETIVSDPIRQRIKPAPIIINKQARLAASEKQPMIINQRLRSQRGTKTFHIKEEPDNSDFTVEWQGDDGEVMVVELVNGDEEVLVKHEPSANSKISAKNCFGFEDDDDYEEYGDGENEVDGASQEFLQLMDMIEQDS
B6: in series [1], the stoichiometry N is 2 BTB per CTD.
